This note sets out measurements from doi:10.1101/2021.12.14.472599.

Where two headings read alike, the source gives them in different places.

The target in series [1] is TwinStrep-CcSir2 protein (TwinStrep-tag fused to the N-terminus of His6-CcSir2) (Caballeronia cordobensis). Nature of the series: co-elution from a Heparin column with SDS-PAGE densitometry.
In series [2] the target is T1, GsSir2;GsAgo (Geobacter sulfurreducens Caccavo (ATCC …, UniProt Q74DF6;Q74DF5 1-587;1-473, |)). Nature of the series: EMSA.
For series [3], the target named is T1, GsSir2;GsAgo. Nature of the series: EMSA. The source holds these as a separate data set.
Series [4] addresses T2, GsSir2(D230A);GsAgo (Geobacter sulfurreducens Caccavo (ATCC …, UniProt Q74DF6;Q74DF5 1-587;1-473, D230A|)). Nature of the series: EMSA.
The target in series [5] is T1, GsSir2;GsAgo. Nature of the series: EMSA. This is another data set of the same source. Background: A gel shift assay detects complexes by their altered migration in electrophoresis.
The target in series [6] is T2, GsSir2(D230A);GsAgo. Nature of the series: EMSA. This is another data set of the same source.
Series [7] has as its target GsSir2APAZ;GsAgo (Geobacter sulfurreducens Caccavo (ATCC …, UniProt Q74DF6;Q74DF5 1-587;1-473, R440E;R442E;R517E;R525E;R528E;R531E|)). Nature of the series: EMSA.

One may read the stoichiometry N as a count of units in the complex or per binding partner. As for “CcAgo protein (short pAgo of the CcSir2/Ago system) (natural protein)”, in series [1], the stoichiometry N is 1 Sir2:Ago.

Broadly, the Kd is the free concentration of one partner at which half of the binding sites on the other are occupied at equilibrium, for simple one-to-one binding. In series [2], AUAAUGGUUUCUUAGACGUCGUUUUAGAGCUGUGUUGUUUCG (ssRNA) [ssRNA (TF-A)] gave a Kd of 0.042 ± 0.015 nM.

B1: gRNA TF-A + nsp-ssDNA MZ-589 (mixed)
RNA: AUAAUGGUUUCUUAGACGUCGUUUUAGAGCUGUGUUGUUUCG
DNA: GGAGATGGGAAGTCATTAGATGTAGAACTTGAATGGCAACGG
modifications: 5'-phosphate on guide
Consider B1, for which binding in series [3] was characterised by a dissociation constant (Kd) of 0.42 ± 0.231 nM.

B2: dsRNA (TF-A/MZ-1185) (dsRNA)
RNA 1: AUAAUGGUUUCUUAGACGUCGUUUUAGAGCUGUGUUGUUUCG
RNA 2: CGAAACAACACAGCUCUAAAACGACGUCUAAGAAACCAUUAU
Turning to B2, the affinity in series [2], expressed as Kd, was 73 ± 29 nM.

B3: RNA/DNA heteroduplex (TF-A/MZ-949) (DNA:RNA)
RNA: AUAAUGGUUUCUUAGACGUCGUUUUAGAGCUGUGUUGUUUCG
DNA: CGAAACAACACAGCTCTAAAACGACGTCTAAGAAACCATTAT
In turn, B3 displayed a Kd in series [2] of 4.31 ± 0.37 nM.

B4: gRNA TF-A + target ssDNA MZ-949 (DNA:RNA)
RNA: AUAAUGGUUUCUUAGACGUCGUUUUAGAGCUGUGUUGUUUCG
DNA: CGAAACAACACAGCTCTAAAACGACGTCTAAGAAACCATTAT
modifications: 5'-phosphate on guide
Take B4: the Kd amounted to 0.02 ± 0.008 nM in series [3], 0.038 ± 0.013 nM in series [4], 0.079 ± 0.007 nM in series [5] and 0.14 ± 0.057 nM in series [6]. Also, the binding result in series [7] was “no binding”.

B5: gRNA TF-A + target ssRNA MZ-1185 (dsRNA)
RNA 1: AUAAUGGUUUCUUAGACGUCGUUUUAGAGCUGUGUUGUUUCG
RNA 2: CGAAACAACACAGCUCUAAAACGACGUCUAAGAAACCAUUAU
modifications: 5'-phosphate on guide
As to B5, the equilibrium dissociation constant (Kd) in series [3] came to 0.205 ± 0.058 nM; in series [5], 0.567 ± 0.112 nM.

Take ATAATGGTTTCTTAGACGTCGTTTTAGAGCTGTGTTGTTTCG (ssDNA) [ssDNA (TK-49)]: the Kd in series [2] was determined as 0.033 ± 0.016 nM.

B6: gDNA TK-49 + target ssRNA MZ-1185 (DNA:RNA)
DNA: ATAATGGTTTCTTAGACGTCGTTTTAGAGCTGTGTTGTTTCG
RNA: CGAAACAACACAGCUCUAAAACGACGUCUAAGAAACCAUUAU
modifications: 5'-phosphate on guide
On to B6, for which the Kd in series [3] worked out at 0.252 ± 0.114 nM.

B7: gDNA TK-49 + target ssDNA MZ-949 (dsDNA)
DNA 1: ATAATGGTTTCTTAGACGTCGTTTTAGAGCTGTGTTGTTTCG
DNA 2: CGAAACAACACAGCTCTAAAACGACGTCTAAGAAACCATTAT
modifications: 5'-phosphate on guide
In the case of B7, the affinity in series [3], expressed as Kd, was 0.022 ± 0.005 nM.

B8: dsDNA (TK-49/MZ-949) (dsDNA)
DNA 1: ATAATGGTTTCTTAGACGTCGTTTTAGAGCTGTGTTGTTTCG
DNA 2: CGAAACAACACAGCTCTAAAACGACGTCTAAGAAACCATTAT
On to B8, for which, in series [2], binding was characterised by a dissociation constant (Kd) of 51 ± 20 nM.

On to ATAATGGTTTCTTAGACGTCGTTTTAGAGCTGTGTTGTTTCG (ssDNA, circularised by CircLigase II) [circular ssDNA (TK-49)], for which, in series [2], the affinity, expressed as Kd, was 0.072 ± 0.018 nM.
